Measured values from patent publication US8153410B2, “Alternate morpheein forms of allosteric proteins as a target for the development of bioactive molecules” (Fox Chase Cancer Center, priority 2003, dated 2012).
Where two headings read alike, the source gives them in different places. Marks after values point to notes of the source that are not given here.

Tests used:
pea PBGS = molecular target: T1, pea PBGS (Pisum sativum, UniProt P30124); conditions: read-out: Kd for the allosteric magnesium of pea PBGS; cited from earlier work
T1 sequence (P30124 69-398 limits assumed): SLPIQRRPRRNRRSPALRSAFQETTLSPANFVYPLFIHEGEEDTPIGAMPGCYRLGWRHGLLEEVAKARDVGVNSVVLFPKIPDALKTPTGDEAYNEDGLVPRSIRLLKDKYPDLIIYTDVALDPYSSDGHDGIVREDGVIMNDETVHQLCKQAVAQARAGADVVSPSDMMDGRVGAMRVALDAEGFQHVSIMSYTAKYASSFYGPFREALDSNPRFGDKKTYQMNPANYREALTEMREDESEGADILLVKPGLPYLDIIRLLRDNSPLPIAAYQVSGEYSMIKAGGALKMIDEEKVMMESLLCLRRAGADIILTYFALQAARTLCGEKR

human PBGS [1] = assay: temperature dependence (Arrhenius plots) of hetero-hexamer to hetero-octamer conversion and of substrate turnover; assay type: biochemical; conditions: pH 7.0, 10 mM ALA-HCl
Text: To determine the free energy of activation for the conversion of hetero-hexamers to hetero-octamers, we took advantage of the dramatic differences in the activity of octameric (high activity) and hexameric (low activity) human PBGS at pH 7.0 (3, 5). Because of this difference, the transition from purified hetero-hexamers to a mixture of hetero-hexamers and hetero-octamers under turnover conditions is accompanied by a progressive increase in the specific activity; this process was monitored at several temperatures. Starting with purified hetero-hexamers, (FIG. 34a) the specific activity increased, which is fit to a first-order exponential as exemplified in FIG. 35b (5). […] The time-courses for conversion of hetero-hexamer to hetero-octamer were monitored by periodically removing aliquots from the incubations and immediately quantifying porphobilinogen using Ehrlich's reagent and calculating specific activities based on the total incubation time. […] An activation energy for hetero-hexamer to hetero-octamer conversion (Ea=63±5 kJ/mol) was determined from the slope of the plot. […] However, we previously monitored this process at 5 μg/ml and 0.9 mg/ml, two widely different enzyme concentrations, by specific activity increase and dynamic light scattering respectively. […]

human PBGS [2] = assay: kinetic characterization (Km, Vmax, specific activity) of human PBGS variants with substrate ALA; assay type: biochemical
Method: (§1) All kinetic determinations were carried out in 0.1 M bis-tris propane, 10 mM 2-mercaptoethanol, 10 μM Zn. For the pH rate profiles, the reported pH reflects the assay pH after the addition of 10 mM ALA-HCl. For Km and Vmax determinations, concentrations of ALA were 10 μM, 30 μM, 100 μM, 300 μM, 1 mM, 3 mM, and 10 mM and were each done in duplicate. […] All assays were at 37° C. for a fixed time using Ehrlich's reagent to determine porphobilinogen formed.
(§2) The kinetic parameters Km and Vmax of the S300 purified pools were determined at pH 7 and at pH 9 (Table 3 contains data for hetero-hexamers (Pool I) initially at 70% Leu and 30% Phe and for hetero-octamers (Pool II) initially at 30% Leu and 70% Phe). […] With the exception of the trace amount of octamer present for Pool I that is detected at pH 9, all the kinetic values are well determined (see Table 3). […] The factors that govern equilibration of human PBGS heteromers under assay conditions remain to be elucidated.
(§3) Km1 and Km2 (both mM) are interpreted as the Km for the octamer and hexamer, respectively.
(§4) Using freshly prepared hetero-oligomers of WT+F12L, the Pool I and Pool II proteins were separated chromatographically and then dialyzed for 24 hours at pH 7 in the presence of 10 mM ALA. Following dialysis, the re-equilibrated hetero-oligomers were again separated into their hexameric and octameric components by chromatography on a Mono-Q column. The separated proteins were characterized for their specific activity and for their Phe12 and Leu12 content. The specific activity of hexamer and octamer are dramatically different with hexamer showing optimal activity at pH 9 and the activity of octamer is maximal at pH 7 (Table 4). […] Following chromatographic separation, the proteins were called Pool I hexamer, Pool I octamer, Pool II hexamer, and Pool II octamer and are described below. The peak to elute first on the Mono-Q column runs comparably to the F12L mutant, which is the hexamer. The hexameric structure is substantiated by native gel electrophoresis and by specific activity at pH 7 and pH 9 (FIG. 26A and Table 4). The second peak to elute runs comparably to the WT human PBGS, which is the octamer. The octameric structure is substantiated by native gel electrophoresis and specific activity at pH 7 and pH 9 (FIG. 26A and Table 4). Consistent with the documented characteristics of human PBGS hexamers and octamers, Pool I hexamer and Pool II hexamer have very low activity at pH 7 and considerable activity at pH 9. Pool I octamer and Pool II octamer both show substantially higher activity at pH 7 than at pH 9.

human PBGS [3] = molecular target: T2, human PBGS (Homo sapiens, UniProt P13716, C162A/K59N); assay: as above; assay type: biochemical; conditions: pH 9; Table 1; hexamer component
T2 construct: made in house; host or cells: E. coli BLR(DE3)
T2 sequence (P13716 1-330 K59N/C162A): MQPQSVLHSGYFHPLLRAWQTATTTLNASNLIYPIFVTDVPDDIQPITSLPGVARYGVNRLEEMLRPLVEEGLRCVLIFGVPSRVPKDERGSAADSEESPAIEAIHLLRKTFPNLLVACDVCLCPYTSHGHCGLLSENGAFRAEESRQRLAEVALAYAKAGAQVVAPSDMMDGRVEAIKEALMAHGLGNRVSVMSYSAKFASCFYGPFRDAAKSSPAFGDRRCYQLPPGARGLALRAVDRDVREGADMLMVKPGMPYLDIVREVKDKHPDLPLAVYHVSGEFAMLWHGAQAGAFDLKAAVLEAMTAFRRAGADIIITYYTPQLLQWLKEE
Method: as §1, §2, §3, §4

**Q.** Which Kd (pea PBGS) does the source give for `[Mg+2]` [magnesium] here?
**A.** Its Kd is 2.5 mM.

B1: WT: wild type human PBGS (parent N59/C162A), octameric, expressed in E. coli (protein)
chain: T2 sequence (P13716 1-330 K59N/C162A)
**Q.** What does the source list for B1?
**A.** activation energy for substrate turnover (human PBGS [1]): 62 ± 1 kJ/mol; Specific activities before and after substrate induced disproportionation (human PBGS [2]; pH 7): 56.9 µmol/h/mg; Km1 (human PBGS [2]; pH 7, Table 1): 0.25 ± 0.01 mM; Vmax1 (human PBGS [2]; pH 7, Table 1): 55.5 ± 0.2; Vmax1 (human PBGS [2]; pH 7, Table 3): 55.5 ± 0.2 µmol/h/mg; Km (human PBGS [2]; pH 7, Table 3, read-out: Km1 (Km for the octamer)): 250 ± 10 µM; Specific activities before and after substrate induced disproportionation (human PBGS [2]; pH 9): 13.1 µmol/h/mg; Km1 (human PBGS [2]; pH 9, Table 1): 0.015 ± 0.001 mM; Vmax1 (human PBGS [2]; pH 9, Table 1): 8.16 ± 0.13; Vmax1 (human PBGS [2]; pH 9, Table 3): 8.16 ± 0.13 µmol/h/mg; Vmax2 (human PBGS [2]; pH 9, Table 3): 6.67 ± 0.36 µmol/h/mg; Km (human PBGS [2]; pH 9, Table 3, read-out: Km1 (Km for the octamer)): 15 µM; Km (human PBGS [2]; pH 9, Table 3, read-out: Km2 (Km for the hexamer)): 4460 ± 800 µM; Km2 (human PBGS [3]): 4.46 ± 0.80^a mM; Vmax2 (human PBGS [3]): 6.67 µM/h/mg
